How the values were obtained:
Conditions in all cases: both partners purified
[1] = target: T1, human prothrombin (coagulation factor II) (human, UniProt P00734 44-622, gamma-carboxylated glutamate residues in the Gla domain); assay: SPR; Biacore T200; about 300 to 5,000 RU of Ad virions immobilised on a CM5 chip, coagulation factors flowed over at four concentrations, 50 uL/min; running buffer 10 mM HEPES, 150 mM NaCl, 1 mM CaCl2, 0.5 mM MgCl2, 0.1% BSA, 0.05% polysorbate 20, pH 7.4; regeneration with 3 mM EDTA; global fit to a 1:1 kinetic interaction model, double referencing
T1 construct: prothrombin (FII), human, plasma-derived; also called human FII; FII; source: bought: Haematologic Technologies, Inc. (HCP-0010), plasma-derived

[2] = target: T2, bovine coagulation factor X (bovine, UniProt P00743 41-492, gamma-carboxylated glutamate residues in the Gla domain); assay: as above
T2 construct: coagulation factor X, bovine, plasma-derived; Pretreated with 125 uM GGACK (EGRCK); written here as one entry; also called bovine FX; source: bought: Haematologic Technologies, Inc. (BCX-1050), plasma-derived

[3] = target: T3, bovine prothrombin (coagulation factor II) (bovine, UniProt P00735 44-625, gamma-carboxylated glutamate residues in the Gla domain); assay: as above
T3 construct: prothrombin (FII), bovine, plasma-derived; also called bovine FII; source: bought: Haematologic Technologies, Inc. (BCP-1010), plasma-derived

[4] = target: T4, mouse coagulation factor X (mouse, UniProt O88947 41-481, gamma-carboxylated glutamate residues in the Gla domain); assay: as above
T4 construct: coagulation factor X, mouse, plasma-derived; Pretreated with 125 uM GGACK (EGRCK); written here as one entry; also called mouse FX; source: bought: Haematologic Technologies, Inc. (MCX-5050), plasma-derived

[5] = target: T5, mouse prothrombin (coagulation factor II) (mouse, UniProt P19221 44-618, gamma-carboxylated glutamate residues in the Gla domain); assay: as above
T5 construct: prothrombin (FII), mouse, plasma-derived; also called mouse FII

[6] = target: T6, human coagulation factor X (human, UniProt P00742 41-488, gamma-carboxylated glutamate residues in the Gla domain); assay: as above
T6 construct: coagulation factor X, human, plasma-derived; written here as one entry; also called human FX; FX; source: bought: Haematologic Technologies, Inc. (HCX-0050), plasma-derived

[7] = target: T7, hexon of Ad5.5 (Ad5 vector, hexon HVR7 VINTDTL), on the virion (human adenovirus type 5, UniProt P04133 2-952, VINTETL to VINTDTL (HVR7; position worked out from the printed T425A)); assay: SPR; Biacore T200; about 300 to 5,000 RU of Ad virions immobilised on a CM5 chip, coagulation factors flowed over at four concentrations, 50 uL/min; 10 mM HEPES, 150 mM NaCl, 1 mM CaCl2, 0.5 mM MgCl2, 0.1% BSA, 0.05% polysorbate 20, pH 7.4; global fit to a 1:1 kinetic interaction model, double referencing
T7 construct: hexon of human adenovirus type 5, whole as in the capsid of the virion; HVR7 segment changed; The whole virion was immobilised; source: 293 cells, virions purified by CsCl ultracentrifugation

[8] = target: T8, hexon of Ad5.6 (Ad5 vector, hexon HVR7 VIRTDTL), on the virion (human adenovirus type 5, UniProt P04133 2-952, VINTETL to VIRTDTL (HVR7; position worked out from the printed T425A)); assay: as above
T8 construct: hexon of human adenovirus type 5, whole as in the capsid of the virion; HVR7 segment changed; The whole virion was immobilised; source: 293 cells, virions purified by CsCl ultracentrifugation

[9] = target: T9, hexon of Ad5.4 (Ad5 vector, hexon HVR7 VINTATL), on the virion (human adenovirus type 5, UniProt P04133 2-952, VINTETL to VINTATL (HVR7; position worked out from the printed T425A)); assay: as above
T9 construct: hexon of human adenovirus type 5, whole as in the capsid of the virion; HVR7 segment changed; The whole virion was immobilised; source: 293 cells, virions purified by CsCl ultracentrifugation

[10] = target: T10, hexon of Ad5.0 (E1/E3-deleted Ad5 vector with wild-type Ad5 capsid), on the virion (human adenovirus type 5, UniProt P04133 2-952); assay: as above
T10 construct: hexon of human adenovirus type 5, whole as in the capsid of the virion; HVR7 segment VINTETL; The whole virion was immobilised; The other capsid proteins are not written; also called VINTETL; source: 293 cells, virions purified by CsCl ultracentrifugation

[11] = target: T1, human prothrombin (coagulation factor …); assay: SPR; Biacore T200; about 300 to 5,000 RU of Ad virions immobilised on a CM5 chip, coagulation factors flowed over at four concentrations, 50 uL/min; running buffer 10 mM HEPES, 150 mM NaCl, 1 mM CaCl2, 0.5 mM MgCl2, 0.1% BSA, 0.05% polysorbate 20, pH 7.4; regeneration with 3 mM EDTA; global fit to a 1:1 kinetic interaction model, double referencing; remark: listed apart in the source

T5 sequence (P19221 44-618): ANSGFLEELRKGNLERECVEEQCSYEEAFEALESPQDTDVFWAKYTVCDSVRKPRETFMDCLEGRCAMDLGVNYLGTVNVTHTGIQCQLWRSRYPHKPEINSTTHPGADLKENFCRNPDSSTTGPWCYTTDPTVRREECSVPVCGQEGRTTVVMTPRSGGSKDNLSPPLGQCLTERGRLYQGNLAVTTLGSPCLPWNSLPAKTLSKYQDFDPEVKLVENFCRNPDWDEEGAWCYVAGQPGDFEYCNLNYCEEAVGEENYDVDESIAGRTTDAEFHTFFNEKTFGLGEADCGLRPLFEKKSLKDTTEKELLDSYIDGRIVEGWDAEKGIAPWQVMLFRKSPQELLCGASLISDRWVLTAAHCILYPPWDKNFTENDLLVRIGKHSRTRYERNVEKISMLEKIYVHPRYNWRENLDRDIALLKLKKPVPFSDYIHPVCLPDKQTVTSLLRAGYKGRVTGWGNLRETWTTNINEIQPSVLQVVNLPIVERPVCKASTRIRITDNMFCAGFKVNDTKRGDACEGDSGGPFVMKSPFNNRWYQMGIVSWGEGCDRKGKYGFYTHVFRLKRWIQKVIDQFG
T3 sequence (P00735 44-625): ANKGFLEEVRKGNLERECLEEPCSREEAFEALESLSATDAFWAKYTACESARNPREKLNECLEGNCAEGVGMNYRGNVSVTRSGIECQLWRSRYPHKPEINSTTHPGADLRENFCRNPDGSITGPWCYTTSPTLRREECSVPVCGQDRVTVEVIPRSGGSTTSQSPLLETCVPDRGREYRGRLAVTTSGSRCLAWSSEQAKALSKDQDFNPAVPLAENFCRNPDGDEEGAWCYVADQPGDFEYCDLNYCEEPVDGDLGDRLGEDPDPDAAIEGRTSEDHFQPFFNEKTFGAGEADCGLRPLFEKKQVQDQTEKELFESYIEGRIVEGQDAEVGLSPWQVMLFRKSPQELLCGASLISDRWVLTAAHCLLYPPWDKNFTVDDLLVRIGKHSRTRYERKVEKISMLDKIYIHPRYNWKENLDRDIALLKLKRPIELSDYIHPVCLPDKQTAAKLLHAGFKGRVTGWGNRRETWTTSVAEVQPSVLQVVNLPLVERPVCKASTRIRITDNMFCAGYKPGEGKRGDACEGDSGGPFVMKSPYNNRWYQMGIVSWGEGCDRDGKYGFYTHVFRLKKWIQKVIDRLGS

B1: hexon of wild-type human adenovirus type 6 (on virions) (natural protein)
chain: ATPSMMPQWSYMHISGQDASEYLSPGLVQFARATETYFSLNNKFRNPTVAPTHDVTTDRSQRLTLRFIPVDREDTAYSYKARFTLAVGDNRVLDMASTYFDIRGVLDRGPTFKPYSGTAYNALAPKGAPNSCEWEQNETAQVDAQELDEEENEANEAQAREQEQAKKTHVYAQAPLSGIKITKEGLQIGTADATVAGAGKEIFADKTFQPEPQVGESQWNEADATAAGGRVLKKTTPMKPCYGSYARPTNSNGGQGVMVEQNGKLESQVEMQFFSTSTNATNEVNNIQPTVVLYSEDVNMETPDTHLSYKPKMGDKNAKVMLGQQAMPNRPNYIAFRDNFIGLMYYNSTGNMGVLAGQASQLNAVVDLQDRNTELSYQLLLDSIGDRTRYFSMWNQAVDSYDPDVRIIENHGTEDELPNYCFPLGGIGITDTFQAVKTTAANGDQGNTTWQKDSTFAERNEIGVGNNFAMEINLNANLWRNFLYSNIALYLPDKLKYNPTNVEISDNPNTYDYMNKRVVAPGLVDCYINLGARWSLDYMDNVNPFNHHRNAGLRYRSMLLGNGRYVPFHIQVPQKFFAIKNLLLLPGSYTYEWNFRKDVNMVLQSSLGNDLRVDGASIKFDSICLYATFFPMAHNTASTLEAMLRNDTNDQSFNDYLSAANMLYPIPANATNVPISIPSRNWAAFRGWAFTRLKTKETPSLGSGYDPYYTYSGSIPYLDGTFYLNHTFKKVAITFDSSVSWPGNDRLLTPNEFEIKRSVDGEGYNVAQCNMTKDWFLVQMLANYNIGYQGFYIPESYKDRMYSFFRNFQPMSRQVVDDTKYKDYQQVGIIHQHNNSGFVGYLAPTMREGQAYPANVPYPLIGKTAVDSITQKKFLCDRTLWRIPFSSNFMSMGALTDLGQNLLYANSAHALDMTFEVDPMDEPTLLYVLFEVFDVVRVHRPHRGVIETVYLRTPFSAGNATT
Kd [1]: 2.7 nM | koff [1]: 0.000182 s⁻¹ | kon [1]: 67000 M⁻¹ s⁻¹ | Kd [2]: 100 nM | koff [2]: 0.0147 s⁻¹ | kon [2]: 144000 M⁻¹ s⁻¹ | Kd [3]: 75 nM | koff [3]: 0.00395 s⁻¹ | kon [3]: 53000 M⁻¹ s⁻¹ | Kd [4]: 0.42 nM | koff [4]: 4.08e-05 s⁻¹ | kon [4]: 96600 M⁻¹ s⁻¹ | Kd [5]: 9.9 nM | koff [5]: 0.000575 s⁻¹ | kon [5]: 58200 M⁻¹ s⁻¹ | Kd [6]: 28 nM | koff [6]: 0.00326 s⁻¹ | kon [6]: 116000 M⁻¹ s⁻¹

B2: mouse prothrombin (coagulation factor II) (natural protein)
chain: not shown
modifications: γ-carboxylated glutamate residues in the Gla domain (positions not given)
notes: prothrombin (FII), mouse, plasma-derived; also called Mouse FII; source: dialyzed
Kd [7]: 216 nM | Kd [8]: 420 nM | Kd [9]: 36 µM | Kd [10]: 2000 nM

B3: hexon of the E1/E3-deleted Ad5 vector Ad5.0 (wild-type Ad5 capsid, on virions) (natural protein, human adenovirus 5)
chain: ATPSMMPQWSYMHISGQDASEYLSPGLVQFARATETYFSLNNKFRNPTVAPTHDVTTDRSQRLTLRFIPVDREDTAYSYKARFTLAVGDNRVLDMASTYFDIRGVLDRGPTFKPYSGTAYNALAPKGAPNPCEWDEAATALEINLEEEDDDNEDEVDEQAEQQKTHVFGQAPYSGINITKEGIQIGVEGQTPKYADKTFQPEPQIGESQWYETEINHAAGRVLKKTTPMKPCYGSYAKPTNENGGQGILVKQQNGKLESQVEMQFFSTTEATAGNGDNLTPKVVLYSEDVDIETPDTHISYMPTIKEGNSRELMGQQSMPNRPNYIAFRDNFIGLMYYNSTGNMGVLAGQASQLNAVVDLQDRNTELSYQLLLDSIGDRTRYFSMWNQAVDSYDPDVRIIENHGTEDELPNYCFPLGGVINTETLTKVKPKTGQENGWEKDATEFSDKNEIRVGNNFAMEINLNANLWRNFLYSNIALYLPDKLKYSPSNVKISDNPNTYDYMNKRVVAPGLVDCYINLGARWSLDYMDNVNPFNHHRNAGLRYRSMLLGNGRYVPFHIQVPQKFFAIKNLLLLPGSYTYEWNFRKDVNMVLQSSLGNDLRVDGASIKFDSICLYATFFPMAHNTASTLEAMLRNDTNDQSFNDYLSAANMLYPIPANATNVPISIPSRNWAAFRGWAFTRLKTKETPSLGSGYDPYYTYSGSIPYLDGTFYLNHTFKKVAITFDSSVSWPGNDRLLTPNEFEIKRSVDGEGYNVAQCNMTKDWFLVQMLANYNIGYQGFYIPESYKDRMYSFFRNFQPMSRQVVDDTKYKDYQQVGILHQHNNSGFVGYLAPTMREGQAYPANFPYPLIGKTAVDSITQKKFLCDRTLWRIPFSSNFMSMGALTDLGQNLLYANSAHALDMTFEVDPMDEPTLLYVLFEVFDVVRVHRPHRGVIETVYLRTPFSAGNATT
notes: hexon of human adenovirus type 5, unchanged, as it stands in the capsid of the vector; Immobilised as whole vector virions; source: E1/E3-deleted Ad5 vector grown on 293 cells, virions purified by CsCl ultracentrifugation
Kd [11]: 35 nM | koff [11]: 0.00317 s⁻¹ | kon [11]: 90500 M⁻¹ s⁻¹

— publication PMC9536601, “Binding of adenovirus species C hexon to prothrombin and the influence of hexon on vector properties in vitro and in vivo” (PLoS Pathogens, 2022)
